Here are results for one molecule from US20040209310A1 (published 2004).

In this assay the target is T1, myc-tagged Mindin (pcDNA-His/myc-Mindin) (human, UniProt Q9BUD6 27-331).
T1 construct: mature; not shown: His/myc tag of vector pcDNA4-His/myc A
T1 sequence (looked up): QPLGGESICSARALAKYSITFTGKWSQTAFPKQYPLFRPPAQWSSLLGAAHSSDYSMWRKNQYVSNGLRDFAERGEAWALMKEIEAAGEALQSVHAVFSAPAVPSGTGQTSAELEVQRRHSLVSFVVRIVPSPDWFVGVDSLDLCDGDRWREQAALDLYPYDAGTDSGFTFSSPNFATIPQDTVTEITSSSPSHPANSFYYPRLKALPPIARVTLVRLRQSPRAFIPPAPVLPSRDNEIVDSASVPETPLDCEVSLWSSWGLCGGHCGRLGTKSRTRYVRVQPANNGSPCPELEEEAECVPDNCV
As to the kind of experiment: pulldown of myc-tagged Mindin with immobilized GST-CAPPD. The protocol:
Affinity chromatography on immobilized GST- or Ig-fusion proteins. These studies were performed essentially as described (Ichtchenko et al., 1995, Cell 81:435-443; Hata et al., Nature 366:347-351). Brain membrane extract was precleared by incubation (2 h at 4° C.) with glutathione agarose and incubated overnight at 4° C. with immobilized GST-CAPPD on glutathione agarose beads preequilibrated with buffer B. Beads were washed with buffer B and serially eluted with 2 ml of buffer B containing 0.3 M NaCl, 0.5 M NaCl, 1.0 M NaCl, or 1.0 M NaCl, 10 mM EGTA, and 5 mM EDTA (instead of 2 mM CaCl2). Eluted proteins were analyzed by SDS-PAGE and Coomassie blue staining. Bound proteins were identified by liquid chromatography/mass spectroscopy of tryptic fragments. For pulldown assays, the medium from COS cells transfected with pcDNA4-His/myc-F spondin or pcDNA-His/myc-Mindin (collected 48-72 h post transfection) was adjusted to (final concentrations) 10 mM HEPES-NaOH pH 7.4, 1 mM EGTA, 1% Triton X-100, proteinase inhibitors were added, and the supernatant was precleared with immobilized GST orIg-C. The treated medium was then incubated overnight at 4° C. with GST or GST-CAPPD immobilized on glutathione agarose or with various Ig-APP fusion proteins immobilized on protein-A Sepharose. […]

B1: GST-CAPPD fusion protein (pGEX-CAPPD, APP695 residues 286-557) (other, human, UniProt P05067-4 286-557, looked up)
chain: VVRVPTTAASTPDAVDKYLETPGDENEHAHFQKAKERLEAKHRERMSQVMREWEEAERQAKNLPKADKKAVIQHFQEKVESLEQEAANERQQLVETHMARVEAMLNDRRRLALENYITALQAVPPRPRHVFNMLKKYVRAEQKDRQHTLKHFEHVRMVDPKKAAQIRSQVMTHLRVIYERMNQSLSLLYNVPAVAEEIQDEVDELLQKEQNYSDDVLANMISEPRISYGNDALMPSLTETKTTVELLPVNGEFSLDDLQPWHSFGADSVPAN
notes: range 286-557; Expressed in bacteria and immobilized on glutathione agarose/Sepharose; also called CAPPD-GST fusion protein; central APP domain; not shown: glutathione S-transferase of vector pGEX-KG
In the case of B1, the binding result is “no binding”.
